Patent publication US20200115460A1 (TEIJIN PHARMA, published 2020)

Key:
[1] = target: T1, human insulin receptor (human, UniProt P06213 28-1382); experiment: Cell ELISA on HEK 293T cells expressing human insulin receptor
T1 construct: whole, on cells; Expressed on transfected HEK 293T cells; also called INSR; hINSR
Procedure: (§1) The HEK 293T cells after the lipofection were added to a 96-well plate (coated with poly-D-lysine) at a concentration of 0.8×10⁵ cells/well (about 180 μL/well) and were immobilized with 10% buffered formalin (Mildform® 10 NM, Wako), followed by blocking with phosphate buffer containing 3% BSA. The plate was used in ELISA.
(§2) In ELISA, antibody solutions (30 μL) adjusted to predetermined concentrations with 0.1% skimmed milk/3% BSA/PBS were added to respective wells and were subjected to reaction at room temperature for about 1 hour. After washing with a washing liquid (tris buffer containing Tween) twice, anti-mouse-IgG antibody-ALP conjugate solutions (30 μL) adjusted to predetermined concentrations with 0.1% skimmed milk/3% BSA/PBS were added to respective wells and were subjected to reaction at room temperature for about 1 hour. After washing with a washing liquid twice, 100 μL of a substrate (PNPP) was added to each well to start the reaction.

[2] = target: T2, recombinant human IGF-I receptor His tag (305-GR-050, R&D SYSTEMS) (human, UniProt P08069 31-932, limits assumed); experiment: SPR, Biacore T200
T2 construct: Bought protein, captured on an anti-His antibody chip; also called IGF-IR-His; not shown: His tag
Procedure: (§3) The sensor chip CM3 immobilized with the anti-His monoclonal antibody was set to Biacore T200, the reaction temperature was set to 36° C., and a running buffer (HBS-EP+, BR-1006-69, GE) was fed at a flow rate 30 μL/min. The amount of the binding ligand was set to about 100 RU, and IGF-IR-His (0.5 to 2×10⁻⁸ mol/L) was added to the sensor chip to be captured by the anti-His monoclonal antibody. Ctrl IgG2a (10 nmol/L) was allowed to react for 1 minute, and HBS-EP+ was fed at a flow rate of 30 μL/min for at least 10 minutes. The analyte and HBS-EP+ were added to flow cells (1 and 2) and flow cells (3 and 4), respectively.
(§4) The reaction conditions were set to a binding time of 600 seconds and a dissociation time of 600 seconds. After completion of the reaction, washing was performed with regeneration buffer 1 (0.2% SDS), regeneration buffer 2 (100 mmol/L Tris-HCl (pH 8.5), 1 mol/L NaCl, 15 mmol/L MgCl₂), and regeneration buffer 3 (10 mmol/L glycine-HCl (pH 1.5)) for 1 minute each at a flow rate of 30 μL/min.

[3] = target: T3, rat IGF-I receptor (rat, UniProt P24062 31-1370); experiment: Cell ELISA on P3U1 cells expressing the receptor
T3 construct: Expressed on transfected P3U1 cells; also called NP_494694

[4] = target: T4, mouse IGF-I receptor (mouse, UniProt Q60751 31-1373); experiment: Cell ELISA on P3U1 cells expressing the receptor
T4 construct: Expressed on transfected P3U1 cells; also called NP_034643

[5] = target: T2, recombinant human IGF-I receptor His …; experiment: SPR, Biacore T200, 36 °C, IGF-IR-His captured by anti-His antibody, 1:1 model
Procedure: An anti-His monoclonal antibody was immobilized to a sensor chip CM3 (GE) with an Amine Coupling Kit (BR-1000-50, GE) and a His Capture Kit (28-9950-56, GE). The immobilization conditions were NHS/EDC: 7 minutes, 50 μg/mL anti-His monoclonal antibody: 3 minutes, ethanolamine: 7 minutes, and target: ≥3000 RU. As analytes, the agent was used at predetermined concentrations.
as §3, §4

[6] = target: human IGF-I receptor (human, UniProt P08069 31-1367); experiment: cell-based or functional assay
[7] = target: guinea pig IGF-I receptor (guinea pig, UniProt P08069 31-1367 (human entry)); experiment: cell-based or functional assay
[8] = target: T1, human insulin receptor; experiment: Cell ELISA, fixed HEK 293T cells expressing the receptor
Procedure: as §1, §2

[9] = target: T5, hINSR[L1]/hIGFIR (human); experiment: Cell ELISA, 10 nM antibody, fixed P3U1 cells expressing the chimera
T5 construct: Chimeric receptor on transfected P3U1 cells
Procedure: (§5) The gene of hIGFIR[L1-L2]/hINSR as Substitution 1 is shown in SEQ ID NO: 23; the gene of hINSR[L1-L2]/hIGFIR as Substitution 2 is shown in SEQ ID NO: 24; the gene of hINSR[L1]/hIGFIR as Substitution 3 is shown in SEQ ID NO: 25; and the gene of hINSR[L2]/hIGFIR as Substitution 4 is shown in SEQ ID NO: 26. After the lipofection, the P3U1 cells were cultured at least overnight and were added to a 96-well plate (coated with poly-D-lysine) at a concentration of 0.8×10⁵ cells/well and immobilized with 10% buffered formalin (Mildform® 10 NM, Wako), followed by blocking with phosphate buffer containing 3% BSA. The plate was used in ELISA.
(§6) In ELISA, 30 μL of an antibody solution adjusted to 10 nM with 0.1% skimmed milk/3% BSA/PBS was added to each well and was subjected to reaction at room temperature for about 1.5 hours. After washing with a washing liquid twice, 30 μL of an anti-mouse-IgG antibody-HRP conjugate solution adjusted to 5 nM with 0.1% skimmed milk/3% BSA/PBS was added to each well and was subjected to reaction at room temperature for about 1 hour. After washing with a washing liquid twice, 50 μL of a substrate (TMB) was added to each well to start the reaction. After about 20 minutes, 50 μL of 0.5 M sulfuric acid was added to each well to stop the reaction. The absorbances at 450 nm and 550 nm were measured, and the difference between absorbance values at 450 nm and 550 nm was calculated. The avidity was calculated based on the difference between absorbance values at 450 nm and 550 nm for cells (Mock cells, SEQ ID NO: 22) transfected with a vector not containing the gene of each substitution as a standard value 1 (Table 3).

[10] = target: T6, hIGFIR[L1-L2]/hINSR (human); experiment: as above
T6 construct: Chimeric receptor on transfected P3U1 cells
Procedure: as §5, §6

[11] = target: T7, hINSR[L2]/hIGFIR (human); experiment: as above
T7 construct: Chimeric receptor on transfected P3U1 cells
Procedure: as §5, §6

[12] = target: T8, hINSR[L1-L2]/hIGFIR (human); experiment: as above
T8 construct: Chimeric receptor on transfected P3U1 cells
Procedure: as §5, §6

T3 sequence (P24062 31-1370 limits assumed): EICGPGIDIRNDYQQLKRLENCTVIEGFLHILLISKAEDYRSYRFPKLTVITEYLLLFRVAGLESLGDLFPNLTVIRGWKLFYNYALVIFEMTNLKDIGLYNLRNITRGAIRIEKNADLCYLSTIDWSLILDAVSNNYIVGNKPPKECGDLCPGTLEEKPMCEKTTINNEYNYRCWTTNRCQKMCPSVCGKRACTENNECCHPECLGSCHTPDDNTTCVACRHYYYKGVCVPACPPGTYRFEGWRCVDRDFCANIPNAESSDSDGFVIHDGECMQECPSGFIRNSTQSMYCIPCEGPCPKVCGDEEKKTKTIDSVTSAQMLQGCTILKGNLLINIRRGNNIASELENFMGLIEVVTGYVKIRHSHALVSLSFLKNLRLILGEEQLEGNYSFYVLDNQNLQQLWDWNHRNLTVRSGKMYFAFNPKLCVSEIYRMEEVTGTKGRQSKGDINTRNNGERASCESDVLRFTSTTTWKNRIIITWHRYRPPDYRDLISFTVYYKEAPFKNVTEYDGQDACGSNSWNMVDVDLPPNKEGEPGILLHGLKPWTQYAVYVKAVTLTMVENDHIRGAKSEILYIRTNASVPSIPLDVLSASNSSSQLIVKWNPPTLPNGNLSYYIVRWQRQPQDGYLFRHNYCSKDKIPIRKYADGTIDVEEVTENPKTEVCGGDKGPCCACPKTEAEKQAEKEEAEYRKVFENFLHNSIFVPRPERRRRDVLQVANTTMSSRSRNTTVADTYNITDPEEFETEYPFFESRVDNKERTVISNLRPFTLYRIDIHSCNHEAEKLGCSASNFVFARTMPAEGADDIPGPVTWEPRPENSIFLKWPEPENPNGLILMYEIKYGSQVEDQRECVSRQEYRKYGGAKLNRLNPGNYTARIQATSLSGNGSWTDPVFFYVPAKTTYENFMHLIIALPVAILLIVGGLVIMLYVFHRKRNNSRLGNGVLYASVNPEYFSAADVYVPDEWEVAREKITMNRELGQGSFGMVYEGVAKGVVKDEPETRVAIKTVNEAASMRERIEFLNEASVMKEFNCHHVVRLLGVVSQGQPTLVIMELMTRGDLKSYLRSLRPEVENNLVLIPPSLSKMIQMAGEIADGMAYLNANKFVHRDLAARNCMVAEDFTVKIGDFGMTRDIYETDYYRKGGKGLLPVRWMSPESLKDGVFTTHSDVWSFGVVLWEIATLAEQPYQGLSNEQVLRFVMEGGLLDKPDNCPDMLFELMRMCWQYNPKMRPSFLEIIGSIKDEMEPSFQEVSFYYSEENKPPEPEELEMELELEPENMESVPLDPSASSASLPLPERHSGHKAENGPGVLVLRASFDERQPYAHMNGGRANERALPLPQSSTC
T4 sequence (Q60751 other isoform, or with tags, fused parts or gaps limits assumed): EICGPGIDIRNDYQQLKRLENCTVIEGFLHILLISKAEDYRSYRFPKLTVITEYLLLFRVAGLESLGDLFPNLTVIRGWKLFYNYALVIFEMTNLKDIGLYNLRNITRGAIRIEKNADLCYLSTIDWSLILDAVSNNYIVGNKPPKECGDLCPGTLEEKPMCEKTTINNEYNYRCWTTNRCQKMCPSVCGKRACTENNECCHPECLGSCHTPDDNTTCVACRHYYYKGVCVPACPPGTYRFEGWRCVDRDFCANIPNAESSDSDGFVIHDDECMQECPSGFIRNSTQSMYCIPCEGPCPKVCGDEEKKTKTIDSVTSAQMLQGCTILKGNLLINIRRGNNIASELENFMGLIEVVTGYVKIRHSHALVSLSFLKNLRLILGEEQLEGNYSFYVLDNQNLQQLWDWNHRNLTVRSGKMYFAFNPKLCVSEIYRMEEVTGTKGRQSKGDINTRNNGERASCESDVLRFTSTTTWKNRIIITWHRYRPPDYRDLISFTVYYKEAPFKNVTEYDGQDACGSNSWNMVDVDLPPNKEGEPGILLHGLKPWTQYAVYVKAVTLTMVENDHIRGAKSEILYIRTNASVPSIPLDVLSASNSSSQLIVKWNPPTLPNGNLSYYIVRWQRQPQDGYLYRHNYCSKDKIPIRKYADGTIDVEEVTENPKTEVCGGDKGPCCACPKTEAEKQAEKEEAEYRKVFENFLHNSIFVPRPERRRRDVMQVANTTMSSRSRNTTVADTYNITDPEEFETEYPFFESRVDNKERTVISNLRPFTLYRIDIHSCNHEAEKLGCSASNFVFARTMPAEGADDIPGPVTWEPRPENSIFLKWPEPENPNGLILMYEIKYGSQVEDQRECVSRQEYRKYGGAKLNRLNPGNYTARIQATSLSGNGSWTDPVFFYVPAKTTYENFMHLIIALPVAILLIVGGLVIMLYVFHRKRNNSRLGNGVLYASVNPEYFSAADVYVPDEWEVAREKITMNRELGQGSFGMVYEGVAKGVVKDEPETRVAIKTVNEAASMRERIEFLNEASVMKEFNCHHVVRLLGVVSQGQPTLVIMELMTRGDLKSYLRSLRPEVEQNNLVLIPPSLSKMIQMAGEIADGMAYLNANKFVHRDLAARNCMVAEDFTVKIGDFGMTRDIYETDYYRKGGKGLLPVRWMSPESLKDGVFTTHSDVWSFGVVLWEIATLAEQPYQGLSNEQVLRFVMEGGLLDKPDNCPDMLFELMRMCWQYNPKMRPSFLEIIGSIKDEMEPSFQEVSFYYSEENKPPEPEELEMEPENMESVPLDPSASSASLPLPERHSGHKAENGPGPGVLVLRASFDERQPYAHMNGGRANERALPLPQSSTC

B1: IGF11-16 (antibody, mouse IgG1, kappa, V domains shown)
VH: QIQLQQPGAELVKPGASVKLSCKAPGYTFTSYWMHWVKQRPGQGLEWIGETNPSNSVTNYNEKFKSKATLTVDKSSSTAYMQLSSLTSEDSAVYYCTIGRGRGFAYWGQGTLVTVSA
VL: DIQMNQSPSSLSASLGDTITITCRASQNINFWLSWCQQKPGNIPKLLIYKASNLHTGVPSRFSGSGSGTDFTLTISSLQPEDIATYYCLQGQSYPYTFGGGTKLEIKR
notes: no cleavage site is stated; also called IGF-I receptor agonist antibody; IGF11-16 antibody
For B1, the binding result [1] was “no binding (tested: 0.5 nM and 5 nM; 1.5-fold of Mock cells)”, the “KD relative to that of IGF-I” value [2] was < 0.02 fold of IGF-I and the “ka relative to that of IGF-I” value [2] was ~0.2 fold of IGF-I. The “kd relative to that of IGF-I” value [2] was < 0.001 fold of IGF-I, the binding result [3] was “no binding (tested: 10 nM)” and the binding result [4] was “no binding (tested: 10 nM)”. The Kd [5] was < 10 pM, the koff [5] was < 1e-05 s⁻¹ and the kon [5] was 1.05e+06 M⁻¹ s⁻¹. For the same binder, the “EC50 of the myoblast proliferative activity, human myoblasts” value [6] was 4 pM, the “EC50 of the myoblast proliferative activity, guinea pig myoblasts” value [7] was 4 pM and the “avidity (absorbance difference 405-550 nm, Mock cells = 1) at 0.5 nM” value [8] was 1.1 fold of Mock cells. For the same binder, the “avidity (absorbance difference 405-550 nm, Mock cells = 1) at 5 nM” value [8] was 1.4 fold of Mock cells, the “Avidity (absorbance difference 450-550 nm, Mock cells = 1)” value [9] was 5.7 fold of Mock cells and the “Avidity (absorbance difference 450-550 nm, Mock cells = 1)” value [10] was 5.5 fold of Mock cells. For the same binder, the “Avidity (absorbance difference 450-550 nm, Mock cells = 1)” value [11] was 5.6 fold of Mock cells and the “Avidity (absorbance difference 450-550 nm, Mock cells = 1)” value [12] was 1.5 fold of Mock cells.
